This is an account of results in the MegaScale stability set (Tsuboyama et al. 2023).

B1: HEEH_KT_rd6_3546 (parent)
chain: SEEDKEREHWERLNRDFELRVLDTTFIAHHAEEVIKLLRWLEK

In the data set the parent is B1. Description: folding stability dG (cDNA display proteolysis); higher = more stable. Conditions: PBS, room temperature.
On to SEEDKEREHWERLNRDFELRVLDTTFIACHAEEVIKLLRWLEK, for which the “folding stability dG” value worked out at 1.85 kcal/mol. The value for SEEDKEREHWERLNRDFELRVLDTTFIAYHAEEVIKLLRWLEK was 1.94 kcal/mol; that for SEEDKEREHWERLNRDFELRVLDTTFIATHAEEVIKLLRWLEK was 1.35 kcal/mol. For SEEDKEREHWERLNRDFELRVLDTTFIAFHAEEVIKLLRWLEK, the “folding stability dG” value was determined as 2.21 kcal/mol. Consider SEEDKEREHWERLNRDFELRVLDTTFIAVHAEEVIKLLRWLEK, for which the “folding stability dG” value worked out at 1.61 kcal/mol. In the case of SEEDKEREHWERLNRDFELRVLDTTFIAEHAEEVIKLLRWLEK, the “folding stability dG” value was 1.45 kcal/mol. As to SEEDKEREHWERLNRDFELRVLDTTFIASHAEEVIKLLRWLEK, the “folding stability dG” value worked out at 1.59 kcal/mol. As for SEEDKEREHWERLNRDFELRVLDTTFIARHAEEVIKLLRWLEK, the figure is 1.68 kcal/mol; as for SEEDKEREHWERLNRDFELRVLDTTFIANHAEEVIKLLRWLEK, 1.3 kcal/mol; as for SEEDKEREHWERLNRDFELRVLDTTFIAGHAEEVIKLLRWLEK, 1.17 kcal/mol. Regarding SEEDKEREHWERLNRDFELRVLDTTFIAQHAEEVIKLLRWLEK, the “folding stability dG” value is 1.23 kcal/mol.

Take SEEDKEREHWERLNRDFELRVLDTTFIALHAEEVIKLLRWLEK: the “folding stability dG” value amounted to 1.59 kcal/mol.

In the case of SEEDKEREHWERLNRDFELRVLDTTFIAMHAEEVIKLLRWLEK, the “folding stability dG” value was 1.98 kcal/mol. For the variant SEEDKEREHWERLNRDFELRVLDTTFIAIHAEEVIKLLRWLEK, the “folding stability dG” value was determined as 2.5 kcal/mol.

As to SEEDKEREHWERLNRDFELRVLDTTFIAPHAEEVIKLLRWLEK, the “folding stability dG” value turned out to be 0.857 kcal/mol. In the case of SEEDKEREHWERLNRDFELRVLDTTFIAKHAEEVIKLLRWLEK, the “folding stability dG” value worked out at 1.77 kcal/mol.

Take SEEDKEREHWERLNRDFELRVLDTTFIAWHAEEVIKLLRWLEK: the “folding stability dG” value worked out at 2.01 kcal/mol.

Regarding SEEDKEREHWERLNRDFELRVLDTTFIAAHAEEVIKLLRWLEK, the “folding stability dG” value came to 1.49 kcal/mol. Turning to SEEDKEREHWERLNRDFELRVLDTTFIADHAEEVIKLLRWLEK, the “folding stability dG” value is 1.05 kcal/mol. In the case of SEEDKEREHWERLNRDFELRVLDTTFIAHHAEEFIKLLRWLEK, the “folding stability dG” value stood at 1.61 kcal/mol. The value for SEEDKEREHWERLNRDFELRVLDTTFIAHHAEELIKLLRWLEK was 1.57 kcal/mol; that for SEEDKEREHWERLNRDFELRVLDTTFIAHHAEEDIKLLRWLEK was 0.006 kcal/mol; that for SEEDKEREHWERLNRDFELRVLDTTFIAHHAEEIIKLLRWLEK was 1.75 kcal/mol.

Consider SEEDKEREHWERLNRDFELRVLDTTFIAHHAEECIKLLRWLEK, for which the “folding stability dG” value was 1.54 kcal/mol. Regarding SEEDKEREHWERLNRDFELRVLDTTFIAHHAEEEIKLLRWLEK, the “folding stability dG” value came out at 0.228 kcal/mol. As for SEEDKEREHWERLNRDFELRVLDTTFIAHHAEEGIKLLRWLEK, the figure is 0.3 kcal/mol; as for SEEDKEREHWERLNRDFELRVLDTTFIAHHAEENIKLLRWLEK, -0.04 kcal/mol; as for SEEDKEREHWERLNRDFELRVLDTTFIAHHAEEHIKLLRWLEK, 0.255 kcal/mol.

SEEDKEREHWERLNRDFELRVLDTTFIAHHAEEKIKLLRWLEK: the “folding stability dG” value turned out to be 0.1 kcal/mol. On to SEEDKEREHWERLNRDFELRVLDTTFIAHHAEEAIKLLRWLEK, for which the “folding stability dG” value is 1.06 kcal/mol. As for SEEDKEREHWERLNRDFELRVLDTTFIAHHAEEMIKLLRWLEK, the “folding stability dG” value is 1.2 kcal/mol. The value for SEEDKEREHWERLNRDFELRVLDTTFIRHHAEEVIKLLRWLEK was 1.48 kcal/mol.

As to SEEDKEREHWERLNRDFELRVLDTTFIQHHAEEVIKLLRWLEK, the “folding stability dG” value was 0.99 kcal/mol. On to SEEDKEREHWERLNRDFELRVLDTTFIVHHAEEVIKLLRWLEK, for which the “folding stability dG” value worked out at 1.51 kcal/mol. As to SEEDKEREHWERLNRDFELRVLDTTFIMHHAEEVIKLLRWLEK, the “folding stability dG” value is 1.84 kcal/mol. The value for SEEDKEREHWERLNRDFELRVLDTTFIWHHAEEVIKLLRWLEK was 2.14 kcal/mol; that for SEEDKEREHWERLNRDFELRVLDTTFINHHAEEVIKLLRWLEK was 0.915 kcal/mol.

In the case of SEEDKEREHWERLNRDFELRVLDTTFITHHAEEVIKLLRWLEK, the “folding stability dG” value was 1.2 kcal/mol. Take SEEDKEREHWERLNRDFELRVLDTTFIYHHAEEVIKLLRWLEK: the “folding stability dG” value was determined as 1.64 kcal/mol.

Regarding SEEDKEREHWERLNRDFELRVLDTTFIPHHAEEVIKLLRWLEK, the “folding stability dG” value was 0.699 kcal/mol. As to SEEDKEREHWERLNRDFELRVLDTTFISHHAEEVIKLLRWLEK, the “folding stability dG” value was determined as 1.15 kcal/mol. For SEEDKEREHWERLNRDFELRVLDTTFILHHAEEVIKLLRWLEK, the “folding stability dG” value was 1.99 kcal/mol.

As for SEEDKEREHWERLNRDFELRVLDTTFIAHKAEEVIKLLRWLEK, the “folding stability dG” value was determined as 1.13 kcal/mol. In the case of SEEDKEREHWERLNRDFELRVLDTTFIAHEAEEVIKLLRWLEK, the “folding stability dG” value worked out at 0.893 kcal/mol. For the variant SEEDKEREHWERLNRDFELRVLDTTFIAHFAEEVIKLLRWLEK, the “folding stability dG” value came out at 2.3 kcal/mol. SEEDKEREHWERLNRDFELRVLDTTFIAHGAEEVIKLLRWLEK: the “folding stability dG” value came to 1.44 kcal/mol. Turning to SEEDKEREHWERLNRDFELRVLDTTFIAHVAEEVIKLLRWLEK, the “folding stability dG” value is 2.38 kcal/mol. With SEEDKEREHWERLNRDFELRVLDTTFIAHSAEEVIKLLRWLEK, the “folding stability dG” value amounted to 1.23 kcal/mol. Regarding SEEDKEREHWERLNRDFELRVLDTTFIAHTAEEVIKLLRWLEK, the “folding stability dG” value stood at 1.72 kcal/mol. For the variant SEEDKEREHWERLNRDFELRVLDTTFIAHDAEEVIKLLRWLEK, the “folding stability dG” value is 0.85 kcal/mol. With SEEDKEREHWERLNRDFELRVLDTTFIAHIAEEVIKLLRWLEK, the “folding stability dG” value amounted to 2.09 kcal/mol. Take SEEDKEREHWERLNRDFELRVLDTTFIAHWAEEVIKLLRWLEK: the “folding stability dG” value is 2.69 kcal/mol.

For SEEDKEREHWERLNRDFELRVLDTTFIAHYAEEVIKLLRWLEK, the “folding stability dG” value is 2.05 kcal/mol. On to SEEDKEREHWERLNRDFELRVLDTTFIAHLAEEVIKLLRWLEK, for which the “folding stability dG” value was 2.38 kcal/mol. With SEEDKEREHWERLNRDFELRVLDTTFIAHMAEEVIKLLRWLEK, the “folding stability dG” value came to 2.34 kcal/mol.

As for SEEDKEREHWERLNRDFELRVLDTTFIAHNAEEVIKLLRWLEK, the “folding stability dG” value came to 1.09 kcal/mol. Consider SEEDKEREHWERLNRDFELRVLDTTFIAHAAEEVIKLLRWLEK, for which the “folding stability dG” value worked out at 2.04 kcal/mol. As to SEEDKEREHWERLNRDFELRVLDTTFIAHPAEEVIKLLRWLEK, the “folding stability dG” value is 0.902 kcal/mol. Turning to SEEDKEREHWERLNRDFELRVLDTTFIAHQAEEVIKLLRWLEK, the “folding stability dG” value came out at 1.06 kcal/mol.
